Source: paper PMC6054995

Target: Marchantia polymorpha 3-phosphoglycerate dehydrogenase, recombinant, without the transit peptide (Marchantia polymorpha)
Experiment: SEC; HiPrep 16/60 Sephacryl S-300 HR, 0.5 mL/min, 100 mM sodium phosphate buffer (pH 9.0); mass estimated from a standard curve of thyroglobulin, apoferritin, beta-amylase, albumin and carbonic anhydrase

stoichiometry N: 4
Substance: Marchantia polymorpha 3-phosphoglycerate dehydrogenase, recombinant, without the transit peptide (enzyme)
